One data set has as its target T1, KstD2 (Rhodococcus ruber, UniProt I0B6I6).
T1 sequence (I0B6I6 1-564): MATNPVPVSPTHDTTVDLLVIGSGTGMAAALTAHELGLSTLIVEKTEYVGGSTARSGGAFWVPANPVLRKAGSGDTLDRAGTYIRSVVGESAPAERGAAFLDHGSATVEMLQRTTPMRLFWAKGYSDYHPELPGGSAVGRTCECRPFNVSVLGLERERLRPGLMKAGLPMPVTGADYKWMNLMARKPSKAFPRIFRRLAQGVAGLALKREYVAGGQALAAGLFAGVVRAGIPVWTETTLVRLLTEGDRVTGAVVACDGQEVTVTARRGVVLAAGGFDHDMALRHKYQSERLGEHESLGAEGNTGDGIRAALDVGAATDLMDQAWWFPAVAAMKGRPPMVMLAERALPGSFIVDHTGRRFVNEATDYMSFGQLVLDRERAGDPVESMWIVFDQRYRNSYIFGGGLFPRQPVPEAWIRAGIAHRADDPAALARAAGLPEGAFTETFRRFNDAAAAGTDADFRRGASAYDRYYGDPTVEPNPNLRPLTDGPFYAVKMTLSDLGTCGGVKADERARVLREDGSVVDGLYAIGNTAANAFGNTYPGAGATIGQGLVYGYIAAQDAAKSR
Kind of data set: DCPIP reduction at […] nm, cell-free extract, Michaelis-Menten fit. The note with it: read-out: KstD2 / Km; 80 µM DCPIP as electron acceptor, 50 mM Tris pH 7, 30 °C.

The target of a further data set is T2, KstD1 (Rhodococcus ruber, UniProt I0B6J0).
T2 sequence (I0B6J0 1-511): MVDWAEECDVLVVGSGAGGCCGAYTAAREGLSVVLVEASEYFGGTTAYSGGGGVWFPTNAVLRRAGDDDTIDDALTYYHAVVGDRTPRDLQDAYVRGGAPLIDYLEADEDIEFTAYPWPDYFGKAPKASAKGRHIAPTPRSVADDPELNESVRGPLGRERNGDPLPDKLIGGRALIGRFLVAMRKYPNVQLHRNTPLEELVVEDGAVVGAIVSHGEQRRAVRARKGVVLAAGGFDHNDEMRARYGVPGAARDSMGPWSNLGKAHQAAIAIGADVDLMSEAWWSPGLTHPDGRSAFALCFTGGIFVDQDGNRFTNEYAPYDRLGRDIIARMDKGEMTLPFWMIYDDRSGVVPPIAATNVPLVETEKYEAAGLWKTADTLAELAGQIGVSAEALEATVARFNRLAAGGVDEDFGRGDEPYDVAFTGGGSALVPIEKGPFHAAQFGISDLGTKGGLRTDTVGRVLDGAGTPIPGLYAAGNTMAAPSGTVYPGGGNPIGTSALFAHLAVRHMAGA
The description is as above. The note with it: read-out: KstD1 / Km; 80 µM DCPIP as electron acceptor, 50 mM Tris pH 7, 30 °C.

Substrate in data set [1]: C[C@]12CC[C@H]3[C@@H](CCC4=CC(=O)CC[C@@]43C)[C@@H]1CC[C@@H]2C(=O)CO
Kind of data set: cells, lysate or membranes. The note with it: 80 µM DCPIP as electron acceptor, 50 mM Tris pH 7, 30 °C.

Substrate in data set [2]: C[C@]12CCC(=O)C=C1CC[C@@H]1[C@@H]2CC[C@]2(C)C(=O)CC[C@@H]12
Kind of data set: cells, lysate or membranes. The note with it: pH 7.0; 30.0 °C.

Substrate in data set [3]: C[C@]12CC[C@H]3[C@@H](CCC4=CC(=O)CC[C@@]43C)[C@@H]1CC[C@@H]2O
In words: cells, lysate or membranes. As to conditions: pH 7.0; 30.0 °C.

Substrate in data set [4]: C[C@H](C(=O)O)[C@H]1CC[C@H]2[C@@H]3CCC4=CC(=O)CC[C@]4(C)[C@H]3CC[C@]12C
In words: cells, lysate or membranes. As to conditions: 80 µM DCPIP as electron acceptor, 50 mM Tris pH 7, 30 °C.

Substrate in data set [5]: C[C@]12C[C@H](O)[C@H]3[C@@H](CCC4=CC(=O)CC[C@@]43C)[C@@H]1CC[C@@H]2C(=O)CO
In words: cells, lysate or membranes. As to conditions: 80 µM DCPIP as electron acceptor, 50 mM Tris pH 7, 30 °C.

Substrate in data set [6]: [H][C@@]12CCC3=CC(=O)CC[C@]3(CO)[C@@]1([H])CC[C@]1(C)C(=O)CC[C@@]21[H]
Kind of data set: cells, lysate or membranes. The note with it: pH 7.0; 30.0 °C.

Substrate in data set [7]: CC(=O)[C@H]1CC[C@H]2[C@@H]3CCC4=CC(=O)CC[C@]4(C)[C@H]3CC[C@]12C
Kind of data set: cells, lysate or membranes. As to conditions: 80 µM DCPIP as electron acceptor, 50 mM Tris pH 7, 30 °C.

Substrate in data set [8]: C[C@]12CCC(=O)C[C@@H]1CC[C@@H]1[C@@H]2CC[C@]2(C)[C@@H](O)CC[C@@H]12
In words: cells, lysate or membranes.

As to `C[C@]12CCC(=O)C=C1CC[C@H]1[C@@H]3CCC(=O)[C@@]3(C)CC[C@@]12O` [9OHAD, 9α-hydroxy-4-androstene-3,17-dione], the Km on KstD2 came to 543 ± 77.8 µM; on KstD1, 22.1 ± 7 µM.

B1: KstD1 (Rhodococcus ruber) (protein)
chain: MVDWAEECDVLVVGSGAGGCCGAYTAAREGLSVVLVEASEYFGGTTAYSGGGGVWFPTNAVLRRAGDDDTIDDALTYYHAVVGDRTPRDLQDAYVRGGAPLIDYLEADEDIEFTAYPWPDYFGKAPKASAKGRHIAPTPRSVADDPELNESVRGPLGRERNGDPLPDKLIGGRALIGRFLVAMRKYPNVQLHRNTPLEELVVEDGAVVGAIVSHGEQRRAVRARKGVVLAAGGFDHNDEMRARYGVPGAARDSMGPWSNLGKAHQAAIAIGADVDLMSEAWWSPGLTHPDGRSAFALCFTGGIFVDQDGNRFTNEYAPYDRLGRDIIARMDKGEMTLPFWMIYDDRSGVVPPIAATNVPLVETEKYEAAGLWKTADTLAELAGQIGVSAEALEATVARFNRLAAGGVDEDFGRGDEPYDVAFTGGGSALVPIEKGPFHAAQFGISDLGTKGGLRTDTVGRVLDGAGTPIPGLYAAGNTMAAPSGTVYPGGGNPIGTSALFAHLAVRHMAGA
B1: the Km in [1] is on record as 21.6 ± 4.5 µM; in [2], 34.2 ± 3.8 µM; in data set [3], 28.8 ± 7.4 µM; in data set [4], 76.1 ± 15.7 µM; in data set [5] it was 161.6 ± 7.6 µM; in [6], 368.8 ± 102.4 µM. For the same molecule, the Km in [7] was 27.9 ± 9.5 µM.

B2: KstD2 (Rhodococcus ruber) (protein)
chain: MATNPVPVSPTHDTTVDLLVIGSGTGMAAALTAHELGLSTLIVEKTEYVGGSTARSGGAFWVPANPVLRKAGSGDTLDRAGTYIRSVVGESAPAERGAAFLDHGSATVEMLQRTTPMRLFWAKGYSDYHPELPGGSAVGRTCECRPFNVSVLGLERERLRPGLMKAGLPMPVTGADYKWMNLMARKPSKAFPRIFRRLAQGVAGLALKREYVAGGQALAAGLFAGVVRAGIPVWTETTLVRLLTEGDRVTGAVVACDGQEVTVTARRGVVLAAGGFDHDMALRHKYQSERLGEHESLGAEGNTGDGIRAALDVGAATDLMDQAWWFPAVAAMKGRPPMVMLAERALPGSFIVDHTGRRFVNEATDYMSFGQLVLDRERAGDPVESMWIVFDQRYRNSYIFGGGLFPRQPVPEAWIRAGIAHRADDPAALARAAGLPEGAFTETFRRFNDAAAAGTDADFRRGASAYDRYYGDPTVEPNPNLRPLTDGPFYAVKMTLSDLGTCGGVKADERARVLREDGSVVDGLYAIGNTAANAFGNTYPGAGATIGQGLVYGYIAAQDAAKSR
B2: the Km in data set [1] is on record as 42.5 ± 5.8 µM; in [2] it was 40.1 ± 8.7 µM; in data set [3], 107.9 ± 18.5 µM; in data set [4], 38.2 ± 6.6 µM; in [5], 374.3 ± 74.5 µM; in data set [6], 347.4 ± 41.7 µM. Also, the Km in data set [8] (pH 7.0, 30.0 °C) worked out at 24.57 ± 7.8 µM; in data set [7], 33.8 ± 4.9 µM.

B3: KstD3 (Rhodococcus ruber) (protein)
chain: MIKQEYDIVVVGSGAGGMTAALTAAHRGASVVLVEKAPHYGGSSARSGGGVWIPNNEVLGAAGVTDTPEAARTYLHSIIGDVVPAGKIDTYIDRGPEMLSFVLEHSALELQWVPGYSDYYPEAPGGRLGGRSVEPKPFDGKRLGDDLALLEPDYVKGPPNFVITQADYKWLNLLMRNPRGPVRAAKVGVRYLWARARRRHLLVRGQALMAGLRMGLRDAGVPLLLNTALTDLVVEDGVVRGVRVESDGQQRTVRARRGVVIASGGFEHNEQMRTQYQRAPIGTEWTVGAKANTGDGIRAGQSLGAAVDFMDDAWWGPSFPLTGGPWFALSERSLPGSMMVNAAGRRFVNESAPYVEAVHAMYGGRHGRGDGPGENIPCWMILDQRYRNRYTFAGITPRSPFPKRWLKAGVVVRAGSIAELAGKIGVPAAALTATVERFNGFARAGRDEDFGRGESGYDHYYGDPRNKPNPSLGVIDKAPFYAIKVVPGDLGTKGGLRTDADARVLREDGTVIEGLYAAGNASGPVMGHTYAGPGATIGPAMTFAYLAVLDALARPEQPAVPPVSETVEQH
For B3, the Km in [1] stood at 111.3 ± 4.0 µM; in data set [8] (80 µM DCPIP as electron acceptor, 50 mM Tris pH 7, 30 °C), 181.1 ± 42.6 µM; in data set [7], 43.6 ± 2.9 µM.
